For the assay, the target named is FRα covalently bound to a CM5 sensor chip (UniProt P15328). Briefly: SPR (Biacore T200), FRα amine-coupled to a CM5 chip, 180 sec association then dissociation. On the technique in general: Surface plasmon resonance follows binding to a sensor surface in real time, without labels.
Sequence of UniProt P15328 (P15328 25-234 limits assumed): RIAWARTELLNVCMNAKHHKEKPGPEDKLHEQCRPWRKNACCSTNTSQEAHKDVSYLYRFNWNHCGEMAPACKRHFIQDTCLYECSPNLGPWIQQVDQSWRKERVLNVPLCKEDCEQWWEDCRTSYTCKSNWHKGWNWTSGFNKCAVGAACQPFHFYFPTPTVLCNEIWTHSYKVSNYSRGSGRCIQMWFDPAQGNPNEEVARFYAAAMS

B1: Antibody I (ScFv, SEQ. ID. NOs: 9-10) (scFv, part only; not given: linker, domain order, His tag, V domains shown, not shown: another chain or arm of the molecule; small tags and cut ends)
VH: QVQLVQSGSELKKPGASVKVSCKASDYIFTNYDITWVRQAPGQGLEWMGEIDPRSGKSYYNEKFKGKSTLTADKSVSTAYLQISSLKAEDTAVYFCATMYYYGSSPPMDYWGQGTTVTVS
VL: DIQMTQSPSSLSASVGDRVTITCRASQDINNFLNWYQQKPGKAPKLLIYYTSRLHSGVPSRFSGSGSGTDYTFTISSLQPEDIATYFCQQSSTIPRTFGQGTKLEIK
In turn, B1 returned a binding at time 300 sec as percent of the plateau of 75%.

These data come from patent US20240417457A1.
